B1: DVL3 (parent)
chain: SDVVDWLYHNVEGFTDRREARKYA
B2: C10orf62 (parent)
chain: TSECPSDKDKSPESHKAKNESWIK

Variants of: B1
Assay: protein stability index of a GFP-peptide fusion (GPS, HEK-293T) (PSI 1-6); higher = more stable
Conditions: c terminus: a fixed tail appended
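Note: lentivirally expressed fusions sorted by FACS into six bins by GFP to DsRed ratio, PSI derived from sequencing read proportions per bin multiplied by bin number.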

Protein stability index: each site, then its substitutions
E19: P 2.85 | N 2.86 | A 2.54 | Y 1.73 | C 2.38 | H 2.58 | G 3.02 | W 1.82 | L 2.35 | M 2.67 | D 3.18 | S 2.73 | V 2.66 | T 2.64 | I 2.25 | K 2.33 | F 2.34
Y23: R 4.18 | E 3.97 | C 3.69 | T 3.55 | S 4.11 | W 2.75 | H 3.73 | V 3.6 | I 2.82 | A 4.21 | F 3.17 | L 3.15 | N 4.05 | P 3.97 | G 4.05 | D 3.95 | K 3.83
A24: R 3.11 | I 1.95 | D 4.05 | L 2.66 | M 2.68 | W 1.09 | Y 2.99 | E 2.62 | H 3.34 | K 3.12 | Q 3.71 | P 3.42 | N 3.62 | V 2.74 | C 3.45 | F 2.82 | T 2.79
K22: E 3.24 | A 2.73 | Q 2.81 | P 3.31 | H 3 | M 2.06 | W 2.06 | T 2.95 | G 2.68 | L 2.19 | I 2.85 | V 2.36 | R 2.29 | C 2.13 | Y 1.96 | N 3.45 | F 1.83 | D 2.89 | S 3.31
A20: S 3.43 | K 2.56 | M 3.28 | G 4.09 | F 2.28 | C 2.73 | T 3.16 | I 1.98 | N 2.96 | L 2.34 | W 2.18 | V 1.83 | R 3.15 | H 3.02 | D 3.1 | P 4.29 | Q 2.69 | Y 2.34 | E 3.5
R18: V 3.53 | K 2.97 | Q 2.94 | M 2.4 | W 1.55 | P 3.03 | T 3.59 | L 2.04 | Y 2.19 | N 3.55 | S 3.43
R21: H 3.02 | V 2.78 | L 3.1 | M 2.35 | C 2.31 | Y 2.34 | Q 3.35 | W 1.67 | F 2.65 | S 2.84 | N 3.21 | A 2.48 | E 3.57 | I 2.33 | P 2.66 | T 3.88 | K 3.24 | D 3.52

Variants of: B2
Assay: as above
Conditions: c terminus: a fixed tail appended

Protein stability index, by site and new letter:
P12: G 3.48 | Y 2.74 | N 3.3 | V 2.4 | K 2.86 | F 2.44 | S 2.54 | R 1.66 | M 3.19
K18: H 4.03 | W 3.26 | D 3.84 | S 4.15 | M 3.77 | T 4.02 | R 3.51 | Q 3.9 | G 3.9 | A 3.67
S21: V 4.47 | N 5.12 | K 4.84 | R 4.9 | Q 4.62 | W 4.49 | P 3.56 | H 4.95
S2: E 3.98 | Q 3.85 | F 3.12 | L 3.24 | R 4.43 | C 3.96 | A 2.63 | W 3.64 | T 3.03
C4: G 3.94 | H 3.34 | E 3.55 | I 3.92 | K 3.51 | R 3.15 | W 2.58
D9: R 2.62 | Y 2.64 | E 3 | P 3.39 | A 2.68 | C 2.46 | G 3.42 | N 2.94 | M 3.28 | W 2.98
E13: L 2.21 | H 3.02 | T 2.65 | K 3.08 | I 2.44 | F 2.94 | S 3.2 | P 2.63 | W 2.17 | Q 3.34 | M 2.65
D7: F 2.84 | M 2.82 | C 3.2 | G 3.38 | L 2.81
W22: F 5.62 | T 5.54 | C 5.18 | Y 5.23 | V 5.79 | N 5.73 | K 5.46 | L 4.7
K10: Y 2.94 | W 2.28 | L 4.2 | N 3.73 | D 4.02 | V 2.75 | P 3.3 | S 3.41 | E 4 | Q 3.46
K16: E 4.94 | G 3.58 | T 4.35 | P 4.62 | H 3.8 | L 3.37
K24: I 2.69 | R 3.92 | A 2.9 | C 3.2 | W 3.43 | F 3.37 | V 2.96 | T 3.18 | Q 2.27
N19: T 2.94 | A 2.83 | S 3.97 | Y 3.11 | R 2.84 | M 3.64 | D 3.99 | L 3.3 | H 2.42 | W 3.46 | I 4.02 | C 3.63
A17: C 3.6 | L 3.64 | F 3.42 | M 2.93 | Q 3.64 | S 3.48 | N 3.56 | I 4.17 | P 3.07 | V 3.37
S6: C 3.17 | F 3.34 | E 3.71 | L 3.82 | V 3.27 | K 2.95 | Y 2.82 | H 3.56 | A 4.02
S11: F 2.98 | L 3.04 | H 3.01 | T 3.85 | P 3.52 | R 2.92 | Y 2.5 | W 3.26 | I 3.2 | C 3.31 | Q 1.92 | A 3.41
H15: W 3.33 | K 4.06 | T 2.99 | R 3.31 | G 3.69 | D 3.92 | Y 3.35 | C 3.2 | L 3.48
E20: I 4.38 | L 4.56 | N 4.69 | F 4.74 | Y 4.2 | V 3.77 | S 4.29 | R 4.09 | D 4.02 | A 5.18 | C 4.47
I23: S 3.79 | C 2.89 | M 4.7 | E 3.96 | W 5.11 | L 4.46 | T 3.33 | G 5.32 | P 5.81
K8: R 3.95 | T 3.45 | Q 3.52 | E 4.41 | D 3.35 | L 3.38 | A 3.08 | F 3.68 | G 4.03 | M 3.52
S14: I 3.66 | Q 4.13 | N 3.95 | E 4.58 | K 2.82 | Y 3 | H 3.71 | G 3.5 | L 3.48 | M 3.34 | V 3.98 | T 3.41
P5: L 3.33 | I 3.86 | F 3.28 | Q 3.32 | G 3.41 | K 3.24 | W 3.04
T1: Q 3.27 | I 3.04 | H 3.57 | W 2.28 | A 2.87 | E 3.09
E3: I 2.14 | R 3.21 | L 3.5 | P 4.09 | N 3.36 | S 3.34 | H 2.84
